The values that follow come from patent US12226546 (University of California, dated 2025).

Assay [1] deals with T1, poly(L-methionine sulfoxide-stat-L-alanine)155-block-poly(L-glutamate-Na)120, (M^OA)155E120 (not fully specified; L-methionine sulfoxide (M^O) residues in the statistical M^O/A segment (ca. 88 mol % M^O, 12 mol % Ala)).
T1 chain: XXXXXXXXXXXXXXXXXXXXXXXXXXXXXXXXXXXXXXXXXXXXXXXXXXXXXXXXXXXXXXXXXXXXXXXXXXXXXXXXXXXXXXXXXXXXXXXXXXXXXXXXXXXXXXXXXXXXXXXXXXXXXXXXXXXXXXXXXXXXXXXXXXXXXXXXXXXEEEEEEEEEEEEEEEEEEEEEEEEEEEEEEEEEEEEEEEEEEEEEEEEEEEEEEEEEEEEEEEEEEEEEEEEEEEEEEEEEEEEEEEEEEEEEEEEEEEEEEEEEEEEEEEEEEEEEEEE
Put plainly: mixing of equal volumes of 5.0 wt % solutions in 1xPBS; polyion complex hydrogel formation.

Assay [2] deals with T2, FITC labeled (M^OA)155E60 (not fully specified; L-methionine sulfoxide (M^O) residues in the statistical M^O/A segment; fluorescein isothiocyanate (FITC) conjugated onto the N-terminal amine).
T2 construct: Fluorescently labeled form of (M^OA)155E60 used for confocal microscopy; also called E labeled (FITC)
T2 chain: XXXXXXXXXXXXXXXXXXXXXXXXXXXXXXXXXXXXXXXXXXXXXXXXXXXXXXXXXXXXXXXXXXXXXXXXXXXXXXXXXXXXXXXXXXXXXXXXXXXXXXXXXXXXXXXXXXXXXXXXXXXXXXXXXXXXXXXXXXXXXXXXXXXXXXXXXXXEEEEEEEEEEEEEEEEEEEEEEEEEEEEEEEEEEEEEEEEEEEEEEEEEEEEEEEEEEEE
Put plainly: laser scanning confocal microscopy of fluorescently labeled hydrogel, 3.0 wt % in PBS. The text has this: Laser scanning confocal microscopy (LSCM) was then used to visualize the labeled chains and the hydrogel network (FIG. 3A-3B).
Example 8—Laser Scanning Confocal Microscopy (LSCM) of Fluorescently Labeled Hydrogels LSCM images of hydrogels (3.0 wt % in PBS) were taken on a Leica TCS-SP1 MP-Inverted Confocal and Multiphoton Microscope equipped with an argon laser (476 and 488 nm blue lines), a diode (DPSS) laser (561 nm yellow-green line), and a helium-neon laser (633 nm far red line). Fluorescently labeled hydrogel samples were visualized on glass slides with a spacer between the slide and the cover slip (double-sided tape) allowing the self-assembled structures to be minimally disturbed during focusing. A Z-slice thickness of 0.78 µm was used. Sample imaging was performed at the Advanced Light Microscopy/Spectroscopy Center (ALMS) at the UCLA California NanoSystems Institute (CNSI).

Assay [3] concerns the target T3, poly(L-methionine sulfoxide0.88-stat-L-alanine0.12)155-block-poly(L-glutamate)60, (M^OA)155E60 (not fully specified; L-methionine sulfoxide (M^O) residues in the statistical M^O/A segment (ca. 88 mol % M^O, 12 mol % Ala)).
T3 chain: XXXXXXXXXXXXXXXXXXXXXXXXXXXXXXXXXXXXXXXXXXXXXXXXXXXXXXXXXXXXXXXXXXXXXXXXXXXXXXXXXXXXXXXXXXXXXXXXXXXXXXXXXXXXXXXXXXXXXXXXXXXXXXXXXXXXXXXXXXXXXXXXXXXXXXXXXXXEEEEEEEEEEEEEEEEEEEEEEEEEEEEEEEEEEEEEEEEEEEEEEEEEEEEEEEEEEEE
The assay is described as follows: mixing of equal volumes of 5.0 wt % solutions in 1xPBS; polyion complex hydrogel formation.

In assay [4] the target is T4, poly(L-methionine sulfoxide-stat-L-alanine)155-block-poly(L-glutamate-Na)90, (M^OA)155E90 (not fully specified; L-methionine sulfoxide (M^O) residues in the statistical M^O/A segment (ca. 88 mol % M^O, 12 mol % Ala)).
T4 chain: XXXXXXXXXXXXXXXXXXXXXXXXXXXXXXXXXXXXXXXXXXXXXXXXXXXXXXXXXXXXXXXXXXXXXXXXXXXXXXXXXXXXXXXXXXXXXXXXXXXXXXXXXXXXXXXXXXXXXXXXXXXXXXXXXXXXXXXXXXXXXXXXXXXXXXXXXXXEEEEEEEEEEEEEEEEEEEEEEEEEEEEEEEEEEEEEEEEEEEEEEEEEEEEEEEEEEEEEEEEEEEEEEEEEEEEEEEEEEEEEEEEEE
Described as above.

For assay [5], the target named is T4, poly(L-methionine …). The assay is described as follows: mixing of length-mismatched copolypeptides at E to K stoichiometry; hydrogel formation.
Assay [6] deals with T5, poly(L-methionine sulfoxide-stat-L-alanine)155-block-poly(L-glutamate-Na)30, (M^OA)155E30 (not fully specified; L-methionine sulfoxide (M^O) residues in the statistical M^O/A segment (ca. 88 mol % M^O, 12 mol % Ala)).
T5 chain: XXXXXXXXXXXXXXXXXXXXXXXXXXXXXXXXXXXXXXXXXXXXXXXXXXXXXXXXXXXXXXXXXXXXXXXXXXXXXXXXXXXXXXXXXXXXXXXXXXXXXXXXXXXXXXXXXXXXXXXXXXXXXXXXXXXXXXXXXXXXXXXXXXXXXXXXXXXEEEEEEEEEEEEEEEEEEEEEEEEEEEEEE
Put plainly: mixing of equal volumes of 5.0 wt % solutions in 1xPBS; polyion complex hydrogel formation.

B1: poly(L-methionine sulfoxide-stat-L-alanine)155-block-poly(L-lysine-HCl)120, (M^OA)155K120 (other)
chain: XXXXXXXXXXXXXXXXXXXXXXXXXXXXXXXXXXXXXXXXXXXXXXXXXXXXXXXXXXXXXXXXXXXXXXXXXXXXXXXXXXXXXXXXXXXXXXXXXXXXXXXXXXXXXXXXXXXXXXXXXXXXXXXXXXXXXXXXXXXXXXXXXXXXXXXXXXXKKKKKKKKKKKKKKKKKKKKKKKKKKKKKKKKKKKKKKKKKKKKKKKKKKKKKKKKKKKKKKKKKKKKKKKKKKKKKKKKKKKKKKKKKKKKKKKKKKKKKKKKKKKKKKKKKKKKKKKK
modifications: X: randomised place (mixture); also: X1-155: Met(O) or Ala, statistical (ca. 88 mol % Met(O)), polydisperse, lengths nominal, HCl salt
For B1, the binding result with poly(L-methionine …) [1] is “binds”.

B2: TRITC labeled (M^OA)155K60 (other)
chain: XXXXXXXXXXXXXXXXXXXXXXXXXXXXXXXXXXXXXXXXXXXXXXXXXXXXXXXXXXXXXXXXXXXXXXXXXXXXXXXXXXXXXXXXXXXXXXXXXXXXXXXXXXXXXXXXXXXXXXXXXXXXXXXXXXXXXXXXXXXXXXXXXXXXXXXXXXXKKKKKKKKKKKKKKKKKKKKKKKKKKKKKKKKKKKKKKKKKKKKKKKKKKKKKKKKKKKK
modifications: X: randomised place (mixture); also: positions 1-155 statistical Met(O)/Ala copolymer, polydisperse, nominal block lengths, TRITC on an unspecified Lys side chain, about 1 probe per 5 chains, Lys as HCl salt
notes: Fluorescently labeled form of (M^OA)155K60 used for confocal microscopy; also called K labeled (TRITC)
As for B2, the binding result in assay [2] was “binds”.

B3: poly(L-methionine sulfoxide0.88-stat-L-alanine0.12)155-block-poly(L-lysine)60, (M^OA)155K60 (other)
chain: XXXXXXXXXXXXXXXXXXXXXXXXXXXXXXXXXXXXXXXXXXXXXXXXXXXXXXXXXXXXXXXXXXXXXXXXXXXXXXXXXXXXXXXXXXXXXXXXXXXXXXXXXXXXXXXXXXXXXXXXXXXXXXXXXXXXXXXXXXXXXXXXXXXXXXXXXXXKKKKKKKKKKKKKKKKKKKKKKKKKKKKKKKKKKKKKKKKKKKKKKKKKKKKKKKKKKKK
modifications: not fully specified; X: randomised place (mixture); also: X1-155: Met(O) or Ala, statistical (ca. 88 mol % Met(O), 12 mol % Ala), HCl salt
For B3, the binding result in the assay with poly(L-methionine …) [3] is “binds”.

B4: poly(L-methionine sulfoxide-stat-L-alanine)155-block-poly(L-lysine-HCl)90, (M^OA)155K90 (other)
chain: XXXXXXXXXXXXXXXXXXXXXXXXXXXXXXXXXXXXXXXXXXXXXXXXXXXXXXXXXXXXXXXXXXXXXXXXXXXXXXXXXXXXXXXXXXXXXXXXXXXXXXXXXXXXXXXXXXXXXXXXXXXXXXXXXXXXXXXXXXXXXXXXXXXXXXXXXXXKKKKKKKKKKKKKKKKKKKKKKKKKKKKKKKKKKKKKKKKKKKKKKKKKKKKKKKKKKKKKKKKKKKKKKKKKKKKKKKKKKKKKKKKKK
modifications: not fully specified; X: randomised place (mixture); also: X1-155: Met(O) or Ala, statistical (ca. 88 mol % Met(O)), HCl salt
In the case of B4, the binding result with poly(L-methionine …) [4] was “binds”.

B5: poly(L-methionine sulfoxide-stat-L-alanine)155-block-poly(L-lysine-HCl)30, (M^OA)155K30 (other)
chain: XXXXXXXXXXXXXXXXXXXXXXXXXXXXXXXXXXXXXXXXXXXXXXXXXXXXXXXXXXXXXXXXXXXXXXXXXXXXXXXXXXXXXXXXXXXXXXXXXXXXXXXXXXXXXXXXXXXXXXXXXXXXXXXXXXXXXXXXXXXXXXXXXXXXXXXXXXXKKKKKKKKKKKKKKKKKKKKKKKKKKKKKK
modifications: not fully specified; L-methionine sulfoxide (M^O) residues in the statistical M^O/A segment (ca. 88 mol % M^O, 12 mol % Ala)
As for B5, the binding result in the assay with poly(L-methionine …) [5] and with poly(L-methionine …) [6] was “binds” in each case.
